B1: H6-tagged human tissue α-L-fucosidase 1 (FUCA1-H6) (enzyme, UniProt P04066 32-466, looked up)
chain: QPPRRYTPDWPSLDSRPLPAWFDEAKFGVFIHWGVFSVPAWGSEWFWWHWQGEGRPQYQRFMRDNYPPGFSYADFGPQFTARFFHPEEWADLFQAAGAKYVVLTTKHHEGFTNWPSPVSWNWNSKDVGPHRDLVGELGTALRKRNIRYGLYHSLLEWFHPLYLLDKKNGFKTQHFVSAKTMPELYDLVNSYKPDLIWSDGEWECPDTYWNSTNFLSWLYNDSPVKDEVVVNDRWGQNCSCHHGGYYNCEDKFKPQSLPDHKWEMCTSIDKFSWGYRRDMALSDVTEESEIISELVQTVSLGGNYLLNIGPTKDGLIVPIFQERLLAVGKWLSINGEAIYASKPWRVQWEKNTTSVWYTSKGSAVYAIFLHWPENGVLNLESPITTSTTKITMLGIQGDLKWSTDPDKGLFISLPQLPPSAVPAEFAWTIKLTGVK
notes: human tissue α-L-fucosidase FUCA1; N-glycosylated; also called H6-tagged FUCA1; H6-tagged human fucosidase; source: HT1080 cells, stably expressing, conditioned medium, purified (Ni-NTA)
B2: untagged human tissue α-L-fucosidase 1 (FUCA1) (enzyme, UniProt P04066 32-466, looked up)
chain: QPPRRYTPDWPSLDSRPLPAWFDEAKFGVFIHWGVFSVPAWGSEWFWWHWQGEGRPQYQRFMRDNYPPGFSYADFGPQFTARFFHPEEWADLFQAAGAKYVVLTTKHHEGFTNWPSPVSWNWNSKDVGPHRDLVGELGTALRKRNIRYGLYHSLLEWFHPLYLLDKKNGFKTQHFVSAKTMPELYDLVNSYKPDLIWSDGEWECPDTYWNSTNFLSWLYNDSPVKDEVVVNDRWGQNCSCHHGGYYNCEDKFKPQSLPDHKWEMCTSIDKFSWGYRRDMALSDVTEESEIISELVQTVSLGGNYLLNIGPTKDGLIVPIFQERLLAVGKWLSINGEAIYASKPWRVQWEKNTTSVWYTSKGSAVYAIFLHWPENGVLNLESPITTSTTKITMLGIQGDLKWSTDPDKGLFISLPQLPPSAVPAEFAWTIKLTGVK
notes: human tissue α-L-fucosidase FUCA1; untagged, secreted into the medium; N-glycosylated; also called untagged FUCA1; hFUCA1; source: CHO-K1 cells, stably expressing, conditioned medium, purified (ammonium sulfate precipitation, strong cation exchange)

Molecular target: the molecule itself
Assay: SEC; Superdex 200 Increase 10/300 GL, McIlvaine buffer pH 4.6, 0.3 mL/min; purified protein; fractions tested by 4-MUF fucosidase activity (FUCA1) or H6-tag western blot (FUCA2-H6)

| Protein | binding result |
| --- | --- |
| B1 | binds |
| B2 | binds |

Source: PMC12427801, “Deciphering α-L-Fucosidase Activity Contribution in Human and Mouse: Tissue α-L-Fucosidase FUCA1 Meets Plasma α-L-Fucosidase FUCA2” (Cells, 2025)
